Source: article PMC4100148
Each block holds one substance with its values, some of them ahead of it.

Assays:
[1] = molecular target: SelP-H (His-rich domain of selenoprotein P), purified (human) (UniProt P49908); experiment: ITC; MicroCal iTC-200, 25 °C, Tris buffer (50 mM, pH 7.4); 1.3 mM Tub-C titrated into 228 μM SelP-H, 20 injections of 2 μL; sequential binding model (n = 2)
[2] = molecular target: CFP-SelP' (Sec to Cys mutant of selenoprotein P fused to enhanced cyan fluorescence protein) (human) (UniProt P49908); experiment: FRET or BRET; sensitized emission method; HEK293T cells co-transfected with CFP (donor) and YFP (receptor) plasmids, confocal microscope 48 h after transfection, excitation 405 and 515 nm
[3] = molecular target: CFP-SelP' (Sec to Cys mutant of selenoprotein P fused to enhanced cyan fluorescence protein) (human) (UniProt P49908); experiment: FRET or BRET; acceptor (receptor) photobleaching method; HEK293T cells co-transfected with CFP and YFP plasmids; ROI bleached at 515 nm, donor imaged at 405 nm excitation; E = 1 - I(prebleaching)/I(postbleaching)
[4] = molecular target: CFP-SelP-H (His-rich domain of selenoprotein P fused to CFP) (human) (UniProt P49908); experiment: as above

association constant K1 (sequential binding model, first site) [1]: 2100 M⁻¹
association constant K2 (sequential binding model, second site) [1]: 1500 M⁻¹
dH1 (sequential binding model, first site) [1]: -1.8 kcal/mol
dH2 (sequential binding model, second site) [1]: 6.9 kcal/mol
stoichiometry N [1]: 2
Substance: Tub-C (the last 42 residues of α-tubulin), purified (from UniProt Q71U36 1-451) (domain or fragment)

FRET efficiency E (average) [3]: 21.8%
FRET efficiency E (cell 1) [3]: 17.6%
FRET efficiency E (cell 2) [3]: 14.1%
FRET efficiency E (cell 3) [3]: 12.2%
FRET efficiency E (cell 4) [3]: 31.5%
FRET efficiency E (cell 5) [3]: 20%
FRET efficiency E (cell 6) [3]: 26.7%
FRET efficiency E (cell 7) [3]: 19.2%
FRET efficiency E (cell 8) [3]: 17.9%
FRET efficiency E (cell 9) [3]: 35.6%
FRET efficiency E (cell 10) [3]: 20.2%
FRET efficiency E (cell 11) [3]: 25%
Substance: YFP-Tub (α-tubulin fused to yellow fluorescence protein) (from UniProt Q71U36 1-451) (natural protein)
FRET efficiency E (average) [2]: 21.3%
FRET efficiency E (cell 1) [2]: 19.7%
FRET efficiency E (cell 2) [2]: 18.7%
FRET efficiency E (cell 3) [2]: 32.6%
FRET efficiency E (cell 4) [2]: 17.7%
FRET efficiency E (cell 5) [2]: 18%

FRET efficiency E [4]: 22.8%
Substance: YFP-Tub-C (C-terminal domain of α-tubulin, the last 42 residues, fused to YFP) (from UniProt Q71U36 1-451) (domain or fragment)
